The assay has as its target endogenous LIF of U-251 glioma cells (human, UniProt P15018 23-202). Briefly: cell-based or functional assay.

Chain of endogenous LIF of U-251 glioma cells (P15018 23-202 limits assumed): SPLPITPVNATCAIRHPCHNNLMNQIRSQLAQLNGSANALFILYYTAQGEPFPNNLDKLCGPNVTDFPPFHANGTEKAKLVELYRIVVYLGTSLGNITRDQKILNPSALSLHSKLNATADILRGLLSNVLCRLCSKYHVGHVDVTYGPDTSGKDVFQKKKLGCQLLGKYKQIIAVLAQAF

B1: h5D8 (humanized 5D8, H2L2) (antibody, V domains shown)
VH: QVQLQESGGGLVKPGGSLRLSCAASGFTFSHAWMHWVRQAPGKGLEWVGQIKAKSDDYATYYAESVKGRFTISRDDSKNTLYLQMNSLKTEDTAVYYCTCWEWDLDFWGQGTMVTVSS
VL: DIVMTQTPLSSPVTLGQPASISCRSSQSLLDSDGHTYLNWLQQRPGQPPRLLIYSVSNLESGVPDRFSGSGAGTDFTLKISRVEAEDVGVYYCMQATHAPPYTFGQGTKLEIK
B1: the “IC50 for biological inhibition (pSTAT3, MSD assay, serum starved U-251 cells)” value worked out at 490 picomolar.

The values are drawn from US20220064279A1 (AstraZeneca / MedImmune, published 2022).
